Like-named read-outs stand apart in the source and are kept apart here.
Key:
Experiment in all cases: EMSA
[1] = target: T1, Replication protein A (RPA heterotrimer) (human, UniProt P27694;P15927;P35244 1-616;1-270;1-121)
[2] = target: T1, Replication protein A (RPA heterotrimer); remark: listed apart in the source
[3] = target: T1, Replication protein A (RPA heterotrimer); remark: listed apart in the source
[4] = target: T1, Replication protein A (RPA heterotrimer); remark: listed apart in the source
[5] = target: T1, Replication protein A (RPA heterotrimer); remark: listed apart in the source

T1 sequence (P27694 whole entry, chain 1 of 3): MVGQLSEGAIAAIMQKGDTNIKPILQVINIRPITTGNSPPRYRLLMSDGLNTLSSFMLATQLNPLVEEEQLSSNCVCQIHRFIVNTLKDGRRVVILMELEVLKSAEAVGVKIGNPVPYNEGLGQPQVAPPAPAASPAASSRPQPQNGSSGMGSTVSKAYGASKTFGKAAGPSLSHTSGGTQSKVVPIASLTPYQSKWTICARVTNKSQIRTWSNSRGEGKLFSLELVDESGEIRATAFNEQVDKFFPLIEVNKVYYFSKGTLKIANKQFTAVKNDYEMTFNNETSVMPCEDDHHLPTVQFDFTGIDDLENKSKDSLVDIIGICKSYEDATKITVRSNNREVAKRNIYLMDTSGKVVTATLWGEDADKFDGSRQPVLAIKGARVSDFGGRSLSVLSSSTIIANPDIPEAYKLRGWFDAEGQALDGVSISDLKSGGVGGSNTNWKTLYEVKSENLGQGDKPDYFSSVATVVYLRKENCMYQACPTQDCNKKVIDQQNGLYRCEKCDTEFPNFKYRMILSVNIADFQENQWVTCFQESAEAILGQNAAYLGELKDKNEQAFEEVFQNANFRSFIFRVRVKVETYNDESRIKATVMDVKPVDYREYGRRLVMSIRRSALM
T1 sequence (P15927 whole entry, chain 2 of 3): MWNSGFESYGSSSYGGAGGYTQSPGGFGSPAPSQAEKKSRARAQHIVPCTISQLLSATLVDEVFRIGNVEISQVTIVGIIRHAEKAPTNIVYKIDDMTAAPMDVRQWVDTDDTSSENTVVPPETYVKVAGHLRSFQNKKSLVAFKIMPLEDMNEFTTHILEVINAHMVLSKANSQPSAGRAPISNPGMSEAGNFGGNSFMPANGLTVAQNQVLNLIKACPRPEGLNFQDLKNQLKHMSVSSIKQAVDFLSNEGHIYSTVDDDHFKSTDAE
T1 sequence (P35244 whole entry, chain 3 of 3): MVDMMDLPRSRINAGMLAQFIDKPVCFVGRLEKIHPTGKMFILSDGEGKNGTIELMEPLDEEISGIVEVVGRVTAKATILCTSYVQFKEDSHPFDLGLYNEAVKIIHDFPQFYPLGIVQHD

Q: With GAAGCAUUUAUCAGGGUUAUUGUCUCAUGAGCGGAU (ssRNA) [RNA no. 6R (36 nt)] as the binder, how does the “apparent K (half saturation)” value [1] read?
A: The value was 65 nM.

Q: How did the Kd [2] turn out when GAAGCATTTATCAGGGTTATTGTCTCATGAGCGGATACATATTTGAAT (ssDNA) [ssDNA no. 211] was run?
A: Its Kd is 3.1 ± 0.6 pM.

B1: dsDNA nos. 211/212 (dsDNA)
DNA 1: GAAGCATTTATCAGGGTTATTGTCTCATGAGCGGATACATATTTGAAT
DNA 2: ATTCAAATATGTATCCGCTCATGAGACAATAACCCTGATAAATGCTTC
Q: How did the Kd [2] turn out when B1 was run?
A: The Kd was 35500 ± 7000 pM.

Q: How did the “apparent K (half saturation)” value [1] turn out when GAAGCAUUUAUCAGGGUUAUUGUC (ssRNA) [RNA no. 5R (24 nt)] was run?
A: Its value is 120 nM.

Q: With AAUGCUUAAUCAGUGAGGCACCUAUCUCAGCGAUCUGUCUAUUUCGUU (ssRNA) [RNA no. 3R] as the binder, how does the Kd [3] read?
A: Its Kd is 100 ± 23.2 pM.

Q: CGUUAAGGGAUUUUGGUCAUGAGAUUAUCAAAAAGGAUCUUCACCUAG (ssRNA) [RNA no. 7R] was tested. Which Kd [4] did it give?
A: The Kd was 248 ± 32.7 pM.

Q: Which Kd [5] does the source give for GAAGCAUUUAUCAGGGUUAUUGUCUCAUGAGCGGAUACAUAUUUGAAU (ssRNA) [RNA no. 501] here?
A: Its Kd is 72 ± 10.2 pM.

Q: And the Kd [2]?
A: Its Kd is 101 ± 17 pM.

B2: RNA-DNA hybrid nos. 501/212 (DNA:RNA)
RNA: GAAGCAUUUAUCAGGGUUAUUGUCUCAUGAGCGGAUACAUAUUUGAAU
DNA: B1 DNA 2
Q: Which Kd [2] does the source give for B2 here?
A: The Kd was 85900 ± 4500 pM.

Q: UUUUAAAUCAAUCUAAAGUAUAUAUGAGUAAACUUGGUCUGACAGUUA (ssRNA) [RNA no. 8R] was tested. Which Kd [4] did it give?
A: The Kd was 62.9 ± 8.2 pM.

Source: publication doi:10.1101/2020.02.11.943977
